Test results from article doi:10.1101/2022.10.11.511767, “A conserved and tunable mechanism for the temperature-controlled condensation of the translation factor Ded1p” (bioRxiv, 2022).
Blank lines part the entries; values can stand above or below the binder they belong to.

What was measured:
Settings in all cases: both partners purified
[1] = biological target: T1, RecA1 domain of Sc Ded1p (residues 82-369) (S. cerevisiae, UniProt P06634 82-369); assay: NMR titration; 1H-15N spectra of the isotope-labelled C-terminal IDR; unlabelled helicase core, RecA1 or RecA2 added; visible condensation in the NMR tube; 20 mM HEPES pH 7.3, 125 mM NaCl, 1 mM DTT, 5% D2O
T1 construct: Ded1p (DEAD-box RNA helicase), S. cerevisiae, first RecA domain, residues 82-369; Used unlabelled (NMR invisible); also called first RecA domain; RecA1 subdomain; source: E. coli, purified (Ni-NTA, TEV cleavage, second Ni-NTA, size exclusion); not shown: His6, N-terminal, cleaved

[2] = biological target: T2, helicase core region of Sc Ded1p (RecA1-RecA2, residues 82-535) (S. cerevisiae, UniProt P06634 82-535); assay: as above
T2 construct: Ded1p (DEAD-box RNA helicase), S. cerevisiae, helicase core region (RecA1-RecA2), residues 82-535; Used unlabelled (NMR invisible); also called Sc helicase domain (RecA1-RecA2); helicase core domain; source: E. coli, purified (Ni-NTA, TEV cleavage, second Ni-NTA, size exclusion); not shown: His6, N-terminal, cleaved

[3] = biological target: T3, RecA2 domain of Sc Ded1p (residues 369-535) (S. cerevisiae, UniProt P06634 369-535); assay: NMR titration; 1H-15N spectra of the isotope-labelled N-terminal IDR; unlabelled helicase core, RecA1 or RecA2 added; 20 mM HEPES pH 7.3, 125 mM NaCl, 1 mM DTT, 5% D2O
T3 construct: Ded1p (DEAD-box RNA helicase), S. cerevisiae, second RecA domain, residues 369-535; 15N and/or 13C isotope labelled when it was the NMR-visible partner, unlabelled when NMR invisible; also called second RecA domain; Rec2 subdomain; source: E. coli, purified (Ni-NTA, TEV cleavage, second Ni-NTA, size exclusion); not shown: His6, N-terminal, cleaved

[4] = biological target: T2, helicase core region of Sc Ded1p …; assay: as above

T2 sequence (P06634 82-535): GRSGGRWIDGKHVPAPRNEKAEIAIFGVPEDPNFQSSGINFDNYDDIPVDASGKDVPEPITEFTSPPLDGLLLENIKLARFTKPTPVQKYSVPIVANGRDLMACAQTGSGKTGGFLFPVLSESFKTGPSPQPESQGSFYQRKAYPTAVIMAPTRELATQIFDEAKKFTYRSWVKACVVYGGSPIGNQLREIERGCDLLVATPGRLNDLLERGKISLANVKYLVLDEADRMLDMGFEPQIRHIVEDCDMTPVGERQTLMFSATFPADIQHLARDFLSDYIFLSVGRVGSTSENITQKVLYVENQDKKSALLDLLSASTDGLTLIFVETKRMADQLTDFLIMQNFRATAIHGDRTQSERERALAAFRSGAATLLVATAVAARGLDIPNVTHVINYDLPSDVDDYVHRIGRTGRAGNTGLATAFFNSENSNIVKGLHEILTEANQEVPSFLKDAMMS
T1 sequence (P06634 82-369): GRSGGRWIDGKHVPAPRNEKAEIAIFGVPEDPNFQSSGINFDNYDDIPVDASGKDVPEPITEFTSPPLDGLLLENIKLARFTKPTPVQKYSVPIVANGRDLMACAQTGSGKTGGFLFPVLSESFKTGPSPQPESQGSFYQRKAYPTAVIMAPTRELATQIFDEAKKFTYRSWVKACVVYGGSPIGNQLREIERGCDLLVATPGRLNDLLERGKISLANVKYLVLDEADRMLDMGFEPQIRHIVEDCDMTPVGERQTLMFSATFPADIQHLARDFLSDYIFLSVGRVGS
T3 sequence (P06634 369-535): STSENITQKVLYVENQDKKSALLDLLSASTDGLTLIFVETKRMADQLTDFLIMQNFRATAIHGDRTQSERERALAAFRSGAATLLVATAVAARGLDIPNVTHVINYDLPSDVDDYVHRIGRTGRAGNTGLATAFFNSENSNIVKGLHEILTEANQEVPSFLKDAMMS

- binding result [1]: binds
- binding result [2]: binds
B1: C-terminal IDR of Sc Ded1p (residues 533-604) (domain or fragment, S. cerevisiae, UniProt P06634 533-604, looked up)
chain: MMSAPGSRSNSRRGGFGRNNNRDYRKAGGASAGGWGSSRSRDNSFRGGSGWGSDSKSSGWGNSGGSNNSSWW
notes: Ded1p (DEAD-box RNA helicase), S. cerevisiae, C-terminal intrinsically disordered region, residues 533-604; 15N isotope labelled (NMR visible) in the titrations; also called C-IDR; source: E. coli, purified (Ni-NTA, TEV cleavage, second Ni-NTA, size exclusion); not shown: His6, N-terminal, cleaved

- binding result [3]: binds
- binding result [4]: binds
B2: N-terminal IDR of Sc Ded1p (residues 1-81) (domain or fragment, S. cerevisiae, UniProt P06634 1-81, looked up)
chain: MAELSEQVQNLSINDNNENGYVPPHLRGKPRSARNNSSNYNNNNGGYNGGRGGGSFFSNNRRGGYGNGGFFGGNNGGSRSN
notes: Ded1p (DEAD-box RNA helicase), S. cerevisiae, N-terminal intrinsically disordered region, residues 1-81; 15N and/or 13C isotope labelled when it was the NMR-visible partner, grown in LB (unlabelled) when NMR invisible; also called N-terminal region; N-IDR; source: E. coli, purified (Ni-NTA, TEV cleavage, second Ni-NTA, size exclusion); not shown: His6, N-terminal, cleaved
